# Source: publication PMC3360062
# Substrate: C[C@H](N)C(=O)O
# Assay: purified protein
# Conditions: 0.5 mM ATP, 10 mM MgCl2, 50 mM Tris-HCl pH 7.5, 25°C, 0.25 µM enzyme, 5 min, alanine 0.1-0.5 mM
protein,measurement,value
Sare0718 (Salinispora arenicola) (protein) QRTSTTTTAETTTSTRATGRTNLPASPYPIHPPEPLATLSPRDRALFVRFGYGPTESVAHTHIHHAFEYWATVTPEAVAVEDGDETITYRELDQRADQLAARLAASGVRPGDRVALFVRRSIPMVVGLLAALKAGAAYVPQHVDTVPPAQLQHVIHTADTRVIMTLAATADRIPVPDGHVVITLDDLGKTEPTDLIAGRFTPATPLPPDSPCYVLFTSGSTGRPNGVVVTHRNICNILLTSPGNLGIQPGWKVGQILNIAFDMASWEILGALSHGATLVIRGSDIVETMSRVDVIIATPTVLSRTDPDRCQRVKVVAVAGEPCPRALADAWSAVCAFYNACGPTETTIVNTMSRHRPTAERLTIGRPTPNNTVYVLDADLRPCPIGTVGEMWAGGDCVSAGYLSNARLTAERYALDPFLGHGRLMFRTRDLGRWTPDGELEHFGRTDDQVKVRGFRVELDSVSAILEAVPGCTRAATIKLDDRSLVSFVAPAEVDPDLARMAVSEALPYYCVPETVHTLPELPTTSRGKIDKLALRRLVTRQDQLVTSQEQGATR,Km,116.4 ± 15.9 µM
same,kcat,0.209893 ± 0.00852 s⁻¹
